Earlier results, collected in patent publication US7759315B2, “Treatment of inflammatory conditions of the intestine” (CSL Behring AG, priority 2005, dated 2010).
Non-standard residues stand in square brackets, D forms with d. No end group written: not given here. Aib = CC(C)(N)C(=O)O

target: T1, LCAT (Homo sapiens, UniProt P04180)
T1 sequence (P04180 25-440): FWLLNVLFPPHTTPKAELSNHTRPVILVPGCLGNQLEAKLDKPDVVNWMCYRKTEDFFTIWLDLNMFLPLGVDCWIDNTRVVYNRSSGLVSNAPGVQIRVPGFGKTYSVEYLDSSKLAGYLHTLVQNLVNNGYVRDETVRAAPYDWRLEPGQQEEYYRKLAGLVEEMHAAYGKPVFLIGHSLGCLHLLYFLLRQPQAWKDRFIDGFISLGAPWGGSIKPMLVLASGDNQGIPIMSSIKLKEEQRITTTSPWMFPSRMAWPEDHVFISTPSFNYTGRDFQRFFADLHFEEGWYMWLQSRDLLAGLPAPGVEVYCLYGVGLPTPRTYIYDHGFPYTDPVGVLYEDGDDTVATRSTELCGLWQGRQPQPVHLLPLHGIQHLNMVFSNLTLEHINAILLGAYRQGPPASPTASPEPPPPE

| Substance | ACTIVITY (%) LCAT [%] |
| --- | --- |
| AVLELFENLLERLLDALQKKLK [Peptide 153] | 49 |
| DVLDLFRELLEELKQKLK* (not fully specified (N-terminus, C-terminus); printed as DVLDLFRELLEELKQKLK*) [Peptide 221] | 12 |
| DWFKAFYDKFFEKFKEFF [Peptide 247] | 3 |
| GIKKFLGSIWKFIKAFVG [Peptide 242, 18L peptide (Degreat et al., 1990), reference compound] | 7 |
| GVLDLFRELLNEGLEALKQKLK [Peptide 13] | 67 |
| GVLDLFRELLNELLEALKQKLK [Peptide 18] | 58 |
| GVLDLFRELLNELLEALKQKLKK [Peptide 2] | 105 |
| LVLDLFRELLNELLEALKQKLK [Peptide 59] | 17 |
| PALELFKDLLEEFRQRLK* (not fully specified (N-terminus, C-terminus); printed as PALELFKDLLEEFRQRLK*) [Peptide 213] | 42 |
| PELDEFREKLNEXLEALKQKLK (PELDEFREKLNE[Aib]LEALKQKLK; not fully specified (C-terminus)) [Peptide 117] | 0 |
| PLLDLFKELLEELKQKLK* (not fully specified (N-terminus, C-terminus); printed as PLLDLFKELLEELKQKLK*) [Peptide 201] | 74 |
| PLLELFENLLEKLLDALQKKLK [Peptide 183] | 6 |
| PLLELFKELLQELLEALKQKLK [Peptide 23] | 54 |
| PLLELLKELLEELKQKLK* (not fully specified (N-terminus, C-terminus); printed as PLLELLKELLEELKQKLK*) [Peptide 206] | 57 |
| PVFELFENLLERLLDALQKKLK [Peptide 152] | 50 |
| PVLDAFRELLEALLQLKK [Peptide 222] | 8 |
| PVLDEFREKLNEELEALWQKLK [Peptide 121] | 0 |
| PVLDEFREKLNEELEAXKQKLK (PVLDEFREKLNEELEA[Aib]KQKLK; not fully specified (C-terminus)) [Peptide 119] | 0 |
| PVLDEFREKLNEELEWLKQKLK [Peptide 122] | 0 |
| PVLDEFREKLNELLEALKQKLK [Peptide 84] | 7 |
| PVLDEFREKLNELXEALKQKLK (PVLDEFREKLNEL[Aib]EALKQKLK) [Peptide 71] | 11 |
| PVLDEFREKLNEXLEALEQKLK (PVLDEFREKLNE[Aib]LEALEQKLK) [Peptide 118] | 0 |
| PVLDEFREKLNEXLEALKQKL~ (PVLDEFREKLNE[Aib]LEALKQKL; not fully specified (C-terminus); printed as PVLDEFREKLNEXLEALKQKL~) [Peptide 58] | 18 |
| PVLDEFREKLNEXSEALKQKLK (PVLDEFREKLNE[Aib]SEALKQKLK; not fully specified (C-terminus)) [Peptide 112] | 0 |
| PVLDEFREKLWEXWEALKQKLK (PVLDEFREKLWE[Aib]WEALKQKLK; not fully specified (C-terminus)) [Peptide 111] | 0 |
| PVLDEFRELLNELLEALKQKLK [Peptide 79] | 9 |
| PVLDEFRWKLNEXLEALKQKLK (PVLDEFRWKLNE[Aib]LEALKQKLK; not fully specified (C-terminus)) [Peptide 61] | 16 |

More lines, now with the values ahead:

| ACTIVITY (%) LCAT [%] | Substance |
| --- | --- |
| 66 | AVLDLFRELLEELKQKLK* (not fully specified (N-terminus, C-terminus); printed as AVLDLFRELLEELKQKLK*) [Peptide 203] |
| 39 | AVLDLFRELLNELLEALKQKLK [Peptide 29] |
| 8 | DWFKAFYDKVFEKFKEFF [Peptide 241] |
| 80 | GVLDLFRELLEELKQKLK* (not fully specified (N-terminus, C-terminus); printed as GVLDLFRELLEELKQKLK*) [Peptide 198] |
| 10 | GVLELFLNLLERLLDALQKKLK [Peptide 177] |
| 75 | NVLDLFRELLEELKQKLK* (not fully specified (N-terminus, C-terminus); printed as NVLDLFRELLEELKQKLK*) [Peptide 200] |
| 70 | PALELFKDLLEELRQKLR* (not fully specified (N-terminus, C-terminus); printed as PALELFKDLLEELRQKLR*) [Peptide 202] |
| 48 | PALELFKDLLEELRQRLK* (not fully specified (N-terminus, C-terminus); printed as PALELFKDLLEELRQRLK*) [Peptide 208] |
| 0 | PHLDEFREKLNEXLEALKQKLK (PHLDEFREKLNE[Aib]LEALKQKLK; not fully specified (C-terminus)) [Peptide 116] |
| 0 | PKLDEFREKLNEXLEALKQKLK (PKLDEFREKLNE[Aib]LEALKQKLK; not fully specified (C-terminus)) [Peptide 115] |
| 57 | PLLELFENLLERLLDALQKKLK [Peptide 150] |
| 1 | PVLDAFRELAEALAQLKK [Peptide 225] |
| 1 | PVLDAFRELGEALLQLKK [Peptide 226] |
| 0 | PVLDEFREKLNEELEXLKQKLK (PVLDEFREKLNEELE[Aib]LKQKLK; not fully specified (C-terminus)) [Peptide 120] |
| 5 | PVLDEFREKLNEXLKALKQKLK (PVLDEFREKLNE[Aib]LKALKQKLK; not fully specified (C-terminus)) [Peptide 93] |
| 6 | PVLDEFREKLNEXLWALKQKLK (PVLDEFREKLNE[Aib]LWALKQKLK; not fully specified (C-terminus)) [Peptide 89] |
| 0 | PVLDEFREKLNEXMEALKQKLK (PVLDEFREKLNE[Aib]MEALKQKLK; not fully specified (C-terminus)) [Peptide 114] |
| 0 | PVLDEFREKLNEXXEALKQKLK (PVLDEFREKLNE[Aib][Aib]EALKQKLK; not fully specified (C-terminus)) [Peptide 110] |
| 9 | PVLDEFREKLNKXLEALKQKLK (PVLDEFREKLNK[Aib]LEALKQKLK; not fully specified (C-terminus)) [Peptide 77] |
| 25 | PVLDEFREKLWEXLEALKQKLK (PVLDEFREKLWE[Aib]LEALKQKLK; not fully specified (C-terminus)) [Peptide 43] |
| 14 | PVLDEFRELLKEXLEALKQKLK (PVLDEFRELLKE[Aib]LEALKQKLK; not fully specified (C-terminus)) [Peptide 68] |
| 1 | PVLDEFRELLNEELEALKQKAK (PVLDEFRELLNEELEALKQKLK) [Peptide 103] |
| 5 | PVLDEFRELYNEXLEALKQKLK (PVLDEFRELYNE[Aib]LEALKQKLK; not fully specified (C-terminus)) [Peptide 92] |
| 13 | PVLDEFRKKLNEXLEALKQKLK (PVLDEFRKKLNE[Aib]LEALKQKLK; not fully specified (C-terminus)) [Peptide 69] |
